Assay results: paper PMC12117155 (Nature Communications, 2025)

Target: randomly biotinylated GCase (Velaglucerase) (human, UniProt P04062, biotin, randomly on lysine residues (EZ-Link Sulfo-NHS-LC-Biotin); glycosylated)
Experiment: BLI

Chain of randomly biotinylated GCase (Velaglucerase) (P04062 40-536): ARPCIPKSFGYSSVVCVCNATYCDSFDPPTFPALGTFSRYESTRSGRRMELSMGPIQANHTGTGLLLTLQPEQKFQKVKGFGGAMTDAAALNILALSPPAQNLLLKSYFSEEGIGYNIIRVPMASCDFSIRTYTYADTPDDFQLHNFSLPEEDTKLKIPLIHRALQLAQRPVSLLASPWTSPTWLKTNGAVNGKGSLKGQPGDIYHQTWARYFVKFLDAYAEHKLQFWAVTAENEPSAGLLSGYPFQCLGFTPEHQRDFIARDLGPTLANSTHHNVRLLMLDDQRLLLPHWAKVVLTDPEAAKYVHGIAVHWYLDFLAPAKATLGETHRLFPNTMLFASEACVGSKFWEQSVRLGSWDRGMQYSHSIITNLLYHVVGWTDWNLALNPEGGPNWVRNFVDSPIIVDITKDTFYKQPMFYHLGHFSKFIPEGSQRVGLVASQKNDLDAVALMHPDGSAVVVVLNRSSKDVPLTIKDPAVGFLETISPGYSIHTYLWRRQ

Kd: < 5 nM
B1: Nb1, C-terminally LPETGG-His6-EPEA-tagged (pHEN29) (VHH)
VHH: QVQLVESGGGLVQPGGSLRLSCAASGFTLDYYAIGWFRQAPGKEREGVSCISSSDGSTYYADSAKGRFTISRDNAKNTVYLQMNSLKPEDTAVYYCATDRGQCTYYSSGYYRDLRWYDYWGQGTQVTVSS
